Substitutions are numbered along the chain they refer to.
B1: SN8 #51 (protein, part only; not given: hinge, transmembrane and signaling domains, part only)
CAR polypeptide, part: DIVLTQSPDSLAVSLGERATINCKASQSVDYEGDSFLNWYQQKPGQPPKLLIYAASNLESGVPDRFSGSGSGTDFTLTISSLQAEDVAVYYCQQSNEDPLTFGGGTKVEIKGGSEGKSSGSGSESKSTGGSQVQLVQSGAEVKKPGASVKVSCKASGYTFTGYWIEWVRQAPGQGLEWMGEILPGGGDTNYNQKFQGKVTFTRDTSTSTAYMELSSLRSEDTAVYYCARRVPVYFDYWGQGTLVTVSS
B2: CD9W23 LH scFv-Fc (Fc fusion, not shown: a dimerising Fc or GST)
chain: B1 CAR polypeptide, part with E32D, A171R
B3: CD9W59 LH scFv-Fc (Fc fusion, not shown: a dimerising Fc or GST)
chain: B1 CAR polypeptide, part with E32D, A210V

Key:
CD79b-AF647 = experiment: flow cytometry, CAR-transduced primary human T cells stained with recombinant human CD79b extracellular domain-AF647
Chain of CD79b-AF647 (chain, as listed by the source limits assumed): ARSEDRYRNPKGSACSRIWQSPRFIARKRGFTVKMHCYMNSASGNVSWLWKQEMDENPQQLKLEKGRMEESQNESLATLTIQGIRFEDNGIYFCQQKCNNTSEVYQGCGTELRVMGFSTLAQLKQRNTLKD

[1] = molecular target: recombinant human CD79b isoform-2 (short) (human) (UniProt P40259); experiment: SPR, Biacore 8k; scFv-Fc captured by anti-human Fc, CD79b as analyte; 1:1 Langmuir

| Binder | aCD79b CAR+ (frequency of CAR+ cells) (CD79b-AF647) | Kd [1] [nM] |
| --- | --- | --- |
| B1 | 0.048 |  |
| B2 |  | 11.5 |
| B3 |  | 6.9 |

Reference: US20210145878A1
